# Experimental data from the DeepSol protein solubility set.
# Assay: soluble on expression in E. coli; label from the status in PepcDB or PDB records
row,Sequence,soluble on expression in E. coli
1,MGSRRYDSRTTIFSPEGRLYQVEYALESISHAGTAIGIMASDGIVLAAERKVTSTLLEQDTSTEKLYKLNDKIAVAVAGLTADAEILINTARIHAQNYLKTYNEDIPVEILVRRLSDIKQGYTQHGGLRPFGVSFIYAGYDDRYGYQLYTSNPSGNYTGWKAISVGANTSAAQTLLQMDYKDDMKVDDAIELALKTLSKTTDSSALTYDRLEFATIRKGANDGEVYQKIFKPQEIKDILVKTGITKKDEDEEADEDMK,soluble
2,MGSDKIHHHHHHMSETEDSIVGIKDKELKMIRKILNRYEMKLVDIKKIRSIYKIKTENSTVCLKKVSHEFKKVENGNYLVRELKKNNFNNIADYISTKDGKLIVFYKNLAFYLTEWVDGEECNLNDINEAINASKLLAKFHLATQNINFHKIKLKNNNSKNWVEIFAKCLRDMESFKSIIQNKRIKNKFDFMYEDLIESYYNRGLFSIKILNESSYFKIIKGSNNKKTVCHNSFYYQNIIKGKKDYYIIHLNSIIIDLPITDLCKMIRTLMTKKEYMWNFEKAKQIIQAYNSVNKLSKDEMEVMLALIAFPHKFWKLGKKRYVRHKNWSENKYINKLNKIVLNNKCEQSFIEEYISYLDDIKEFTNFN,not soluble
3,TDINSLRTRLRSGEHAFADTLAFIADGYDYQPQPFRNGDVDNAAGQNEGSCKTLGLALLEGLSDEEALLAFGEHYRSVQATPEGSDHGNIRALIKHGLAGVTFEGEPLKRK,not soluble
4,MGSDKIHHHHHHMMNNLKRILKNPRLILIFILSRYCHWIDDKTYLCIMYFIYFGKLLHLNSPRTFNEKLQWLKLYDRHPEYTQMVDKATVKEYVASIIGEKYIIPTLGVWENFDDIDFENIPSSFVLKCTHDSGGVVICENKNLFDVEKARSKLLKSMKKNYYYVGREYPYKDIKPRIIAEKYMVDESHIELKDYKIHLFHGIPNFIQVDFDRFTSHHRNLYTIDWKPLGKAIKYPAVYEREIDKPIVLDEMLELAMKLAFNIPYVRADFYCIGNKVYFGELTFYHGSGFETFSPKSFDEELGALIKLS,not soluble
5,MPRKQRVVTTPSPPTSDEDEDMDFGSTSQQQQQQPTRNNDGLSGFKSITEIIAEADNNIPSEQIDKDIDSFSSYSDISDWRGIPKFFPSLSSLSRRASTYENWENRFKVVDYLVSCSGALKDSVSDYVADYFEKNESGEDHSVDVELVHAVSMFVILTQRLTVQLQLYVSKSIASANQQAKRGTGRGGRQVDLDDDIVKWKDIQRHRMINCLLELLELRVDTVAGTKKKAIQYVFAPDVMEKDFLLRFLDTVVQLLEDPENMARSSQQWISHYFRILKVLSADYGMTKDVANCLFTALSHSYLEAANTFPFIEPLVTLMKENGEGSGRIYQPLRNVLQLVICRVGNLYAGERAEKPPPKAFCMMVQSLAINVHDLMLQDITHVYRLLQNQHVNVRMSTLHALADMFSSSYLSQSLCDTFASRRLKREGIFKRLLAHTNDEATNVRSKAVSLLRNIMENRRIPEEFESCGLLSIVGSRLNDKSVQVRKSAIQFLTTFLDNNRHGHDFNREMHQLKLNAKCSELRNAEEPQSKAIQGAENAFRQNLFTLTAGVRVEVYDIFRRRYRVEPERSITDILTGLFSPGSGNRLVRYYVAQENFPFRDRIPSLRERRSDDMEDDDDDTVSLEDDDMTSLVSEVVKWVVAQAEEDYVTFKVQLTQMDDDQLLENEQEARDRNNQIMQLRAQVQQLINKMSIEQELSRCVTIALRCVLNGETAEIKEGIRFLTRCKLFEITGADDAIRSMCSLVWRPSADILNELIEAAEDMFISRLDGNEKASERDSSTVENLMKAMNGVTEKDRPSVEEVIYLLAATELVHVDSDKNKVPRKRRPIEANVINKLWMIALDMSHGINSRKIDALRILYPISRSERGIAEARSRLRVVQKKLMDPELAVDALRIISILGTPTKLENEQDAYSRPLFKIHQDDSLWKSIEKLFFYEIMKADDNPDRDWFGVIRLTITTILSLSMDVNVMLPKLASHFVYRTKRISDFFLFYCDQVDDATDDTRKKMAQRRREYWALTYCRVMEKLMAFIGEVAVQLNAYIQVTIPKLHTRYVSKMVDAEKNDANIREEPVRFLSDLEKSVAQRKTIFTVPQDTTPGATSNDLHHLVSVMCDKRLFVPNKLMGRLLPIVVYGMRCKIMPTRIRHAATVAYGKMMPLSAEISAFAAPSFFSAMTKSSSILLRCNLVAACCDFAFAQPTLFELFAQSLFRMSQDESPLARESTILVLSHLMSNDMIQTRGVLSEAARCICDPTRAVRDVAQSFFKELNSRTDTIIQLLPEFLYHLSNGNERMSFKSYKTVFEFLIQLLKDKPKASADSMIDRVCIKFSNTDMNDSETPKYLLVALAKFVQNDGGLHRLQDNWRHWSKFMCHPSVAKEYRMMVEHMHSTSKNDEFKSQCVELIDNINKIESEGLRKEDVAIGSSITKNKGRAKKNPTTMSGSSRTTSRAANSRRRAPPPAQSDEDDSDSDDAPAAPRSAARRKAKKSAVADDDSDSDEFMLDD,not soluble
6,KKEEASSKSYRELIIEGLTALKERKGSSRPALKKFIKENYPIVGSASNFDLYFNNAIKKGVEAGDFEQPKGPAGAVKLAKKKSPEVKKEKEVS,soluble
7,MKDYIRSVLDVVAESPFVPLETHARKGVLAVEKLSEAMEAYCTGNQALLDERTEEIDVLEHEADKIKQKIRASIPSSVRLPVNKKDLLSFLKQQDSIADFAQASAYWMTLRPCKDLPDEIKEGFLELMATSLKTARMYDRLVGELYKLLATSFSKEEIKETLQLVPEVEKLEHDVDVLETALLKKIFEHESAIGGAGVCHLMGLVERIGGIADKSASAADRLRSMILRRLEHHHHHH,soluble
8,MGSDKIHHHHHHMNIEDTLLKQDVWRFIDNTTINPAFDAIQSFATDDTLCRSVGARMAPSTVRGWVHEKTVSLGIQDSKLPDIDKGIAFLQEQGYRVVVRNSGGLAVVLDSGVLNLSMVLPDAERGIAIERGYETMFTLIKDMFVDCNEVIEAKEIEDSYCPGSYDLSIQGEKFAGISQRRMAKGVAVQIYLAIDGDQTTRSELIRDFYTISGKAKQTKYTFPDVNPNVMGSLSDLMKNDISLNGTLVRLFNSLRHYAGELVSGTLTSEELDLFPAYYERLIARNDKVLT,not soluble
9,MKIKEMVTSEMPRERLLSHGAKSLSNTELLAILINTGRKGFSSIDISNELLKSASNLNELKKSSINDLIKVKGIGLQKAITLKAAFELGERMGRRAENNRIKITQPSDVADYMIPTMKDLTQEHFVILLLNSKNVVIKETCVFKGTLNSSIVHPREIFSIAVRENANAIIAVHNHPSGDVLTIV,not soluble
10,FPSTYLSHRQETIGQKATAIAQSLEGKDRQSIEQVLDLYSQTSDIKGTVKGEMTEDKLEVKDSLPLDTDRQTTSLFIEEREVKTQDGGTMILQFLASMDLQKEAEQ,not soluble
11,MEKDAQAGEPEEEEVDDELSSTDLYEDSMAEVTLNETRGGHDSDPFDRSGEYDEDVDLAAPPPITPDIPEIPADVLISLKNRAEGTAIDLKNLKNPFDDSQKVDESEVEAPLK,soluble
12,MLKKHLTTQLFQKKKKKKLHLVLDLDHTLLHSVLVSDLSKREKYLLEETDSRQDLWRRNVDGYEFIIKLRPFLHEFLLEANKLFTMHVYTMGSSSYAKQVLKLIDPDKVYFGKRVITREASPFNKSLDLLAADKRRVVIVDDTVHVWPFHKRNLLQITKYVYFKVDGTKWDSYAEAKKDESQSNGSLANVLKFLEDVHKRFEEDLGFKDLRLLIPCRQCCY,soluble
13,MGHHHHHHSHMVNVKGSTKKSNLDRFLHCITPLVPPQSLPKTEIRTLNRLWHPWERQKVEFFRLSDLWDCYDEWSAYGASVPIHVTNGESLVQYYVPYLSAIQIFTSHSSLIRLREESEDGECEGRDPFSDSGSDESVSEEGLENNTLLHPSDRLGYLYLQYFERSAPYTRVPLMDKINELAQRYPGLMSLRSVDLSPASWMSVAWYPIYHIPMGRTIKDLSTCFLTYHTLSSSFQDMEPEENGGDKERVRREGEDITLLPFGMATYKMQGDVWLSQDHDDQERLASLYSVADSWLKQLRVQHHDFNYFCNMSMTHRG,soluble
14,MLSMCNKYPDFDDEERVRRVDDDFRDVITVFDAPFEGKSPSPAVIVFDELVDSDGSSKYLNFKMEQSYEKVDEIPEKIDAERIRYAIHLGSHSQKNVLQIFQSAYSDGYTEEDKNGKVPVGGKVKCAETETGFRTKINCENVVTAVNEYMDSNREKFGELRIETLNKAERNLDGYIYFSFLKQKPCRNLFIRIPPLE,not soluble
15,MRELRIESVHTNPYTLTLRMNGVTLNDKDDRQLLGWGNLLVNLEWSSIIDQTWTFEAIRIDKLMIQEERFVSGETRFSRLAAESSGPEAGKEKAEKEESAEMPALRIRDFKLENGILRFADNLKDVTAADDAEPKQVSLALQNIGLSVKDFTLQNDASFPLRLNGQLTKGGKLAFDGTFQLLPSPALEGNAEINELAFKQAAPYLQQFMNVQLENGTLTLNGQMSTNAQQPFAFKGSASINTLNIKEASNDETLLGWDSLQTGQFDLNIASKEIETAPIVVKGLSARVVINQDKTTNFGQLVVDTPADTKGDTNKSEETQPFGITIEGVELSDGDVQFADKSLPLPFSTSIHTLSGEVSTLSSDSSEPARVKFEGEVAEYGLAQVNGTVHAWHPTRQTTINVRFRNLQIPEYSPYTVNFAGRKIADGTMDLDLDYTVNEEKLDGQNNLVLHDLKLGEKMESSDAMDLPLDLAIALLQDSDGVIDLNLPVSGDVGNPQFDFGKVIQQAVGDAIKSVVTAPFSFLANLVGADSEEMGKVEFPEGRTHLLPPQRERIAKLREALNKRPALALELAGPFNQAFDAPALKEDKAMKVLQQRLAEEGSEVEEPSLTSESSQDAMEAIFSSHYPDTELEALKDRFTEKPSEASNEEKFDALAYRNHLAEKVIAAQSITNEELKAIANARAETVRDALVNNSESGISADRVRIREPQEVDSVEGERIAMELAVTTDLEHHHHHH,not soluble
16,MGSDKIHHHHHHGASEVMWKDFRNEKTIDTVYLGSSFSQVTFNPYIIDEKLGWKSFNMGTPAQPLDQSYVALQNAIKEKKIKRAVLAYGIPTMEDTQNDNARITFAHAMKYGCSWKQKVKMDWDFITDKENINTESSINYLFPWISNSIEWTKTAIENNIKLKKHNNDATENMKTTEWYASYIGKGYAPILTGGFDYKNAITDNTKANYNCIISETAYCKLEKICRLCKDNEVEFIIVNTPKAPYDISMYGADEYFAINSRIEEICTKYGFSYYDFNLIKPQIFQICPEYLNNYEHLSKAGSEAFCNAFSNFIRLHDSGECMTNYFYNEEEYLDSVKDIVQCIKE,not soluble
17,MIKYSIRGENLEVTEAIRDYVVSKLEKIEKYFQPEQELDARINLKVYREKTAKVEVTIPLGSITLRAEDVSQDMYGSIDLVTDKIERQIRKNKTKIERKNKNKVATGQLFTDALVEDSNIVQSKVVRSKQIDLKPMDLEEAILQMDLLGHDFFIYVDVEDQTTNVIYRREDGEIGLLEVKESAAALEHHHHHH,soluble
18,MSLSKPLQVNPHKLSPVMGAHLACLGVDGVMPIIHGAQGCSNFSKVFFTRHFSEPIVSHSTAVNDITAVLDGGACVAEAIDTLAKKSPFKLAAIITTGLTETKGDDVKGAIGQLSYPALYFPTPDYEGGLEEGFALAIEVFIKERMVSVTTPDPKLALILPHASMTPLEVEKLKEFLEDFGVRALALPDLSGSLDGHLEERQGSVSKGGITLEEIEEASRAGMILSIGESTRKARQAFLAKNPGAFDLNVESLYGLRSSDALIRALMDWTGHEPSVRIKRWRARLQDMMLDSHFALGGKRVIAALENDHLLGISKILEEVGMSFELAVATTGGPAMTKISAKEAVVGDLEHLMQNIESSEGVIACERLGGFLPKETPWLVRGYPIFERIGTGLGNDILYEGGCYLLKELANLFLKEHQAHEGHHHHHH,soluble
